This is an account of results in patent publication US20090105116A1.

For assay [1], the target named is T1, CaCdc42 (R150K), sNBD-labeled and GMPPCP-loaded (Candida albicans). Description: fluorescence cross-titration of sNBD-labeled CaCdc42 (R150K) in the presence of cCla4.
Assay [2] deals with T1, CaCdc42 (R150K), sNBD-labeled and …. Description: fluorescence titration of 1 µM sNBD-labeled, GMPPCP-loaded CaCdc42 (R150K).
Assay [3] shares this target. Description: fluorescence cross-titration; mCst20 with cCst20 added, against mCst20 alone.
Assay [4] shares this target. In words: fluorescence titration of 1 µM sNBD-labeled, GMPPCP-loaded CaCdc42 (R150K) with the peptide [panel B].
For assay [5] the target is unchanged. Description: fluorescence cross-titration of sNBD-labeled CaCdc42 (R150K) in the presence of cCst20.
Assay [6] shares this target. In words: fluorescence cross-titration of sNBD-labeled CaCdc42 (R150K) in the presence of 50 µM mCst20.
Assay [7] has the same target. In words: fluorescence cross-titration; cCst20 with mCst20 added, against cCst20 alone.
Assay [8] shares this target. Description: fluorescence titration of 1 µM CaCdc42 (R150K) with eCla4-SLAM, no SAP-SH2.
The target is the same in assay [9]. Description: fluorescence titration of 1 µM sNBD-labeled, GMPPCP-loaded CaCdc42 (R150K) with the peptide [panel A].
In assay [10] the target is eCla4-SLAM. Description: fluorescence titration of sNBD-CaCdc42 (R150K) with eCla4-SLAM in the presence of SAP-SH2 (competition; fit of the apparent Kd against SAP-SH2 concentration).
Assay [11] concerns the target T1, CaCdc42 (R150K), sNBD-labeled and …. Description: fluorescence cross-titration of sNBD-labeled CaCdc42 (R150K) in the presence of 50 µM mCla4.

Regarding GNSGVSGPINFTHKVHVGFDPA (modifications not checked) [mCla4, O14427 227-248], the Kd turned out to be 4.1 µM in [1] and 4.2 µM in assay [2].

With VNIKISTPFNAKHLAHVGIDDN (modifications not checked) [mCst20, P0CY24 469-490], the fold enhancement in binding upon addition of the cognate peptide in assay [3] came to 5.5 fold. Also, the Kd stood at 0.43 µM in [2] and 81 nM in assay [5]. The molecule further showed an EC50 (read off the curve) in assay [4] of 0.9 µM.

As for GGNSGVSGPINFTHKVHVGFDSGSGNFTGLPDTWKSLLQHSKIT (modifications not checked) [eCla4-SG, O14427 227-248; O14427 249-270], in assay [2], the Kd was 0.067 µM.

GSYTGLPIEWERLLSASGITKK (modifications not checked) [cCst20, P0CY24 491-512]: the Kd in assay [6] came out at 207 µM; in [2] it was 1160 µM. Also, the fold enhancement in binding upon addition of the cognate peptide in [7] was determined as 5.5 fold.

In [2], EVNIKISTPFNAKHLAHVGIDPDNGNFTGLPDTWKSLLQHSKIT (modifications not checked) [mCst20-P-cCla4] returned a Kd of 0.093 µM.

B1: eCla4-SLAM (peptide)
peptide: GGNSGFPGPINFTHKVHVGFDRKSLTIYAQVQKNFTGLPDTWKSLLQHSKIT
modifications: not checked
B1 registered a dissociation constant (Kd) in assay [2] of 0.127 µM. Also, the EC50 (read off the curve) in assay [8] was found to be 0.7 µM.

With EVNIKISTPFNAKHLAHVGIDDNGNFTGLPDTWKSLLQHSKIT (modifications not checked) [mCst20-cCla4], the Kd in assay [2] worked out at 2.64 µM.

In assay [2], VNIKISTPFNAKHLAHVGIDDNGSYTGLPIEWERLLSASGITKK (modifications not checked) [eCst20, P0CY24 469-512] gave a Kd of 0.046 µM. In [9], this molecule gave an EC50 (read off the curve) of 0.5 µM.

As to GNSGVSGPINFTHKVHVGFDPASGNFTGLPDTWKSLLQHSKITN (modifications not checked) [eCla4, O14427 227-270], the dissociation constant (Kd) in assay [2] came to 0.025 µM. This molecule also showed an EC50 (read off the curve) in assay [9] of 0.5 µM.

B2: SH2 domain from the SAP protein (protein)
chain: GSSHHHHHHSSFNPRGSDAVAVYHGKISRETGEKLLLATGLDGSYLLRDSESVPGVYCLCVLYHGYIYTYRVSQTETGSWSAETAPGVHKRYFRKIKNLISAFQKPDQGIVIPLQYPVEK
On to B2, for which the Ki in [10] amounted to 362 µM.

Take SGNFTGLPDTWKSLLQHSKITN (modifications not checked) [cCla4, O14427 249-270]: the figures for the Kd in [2] and in assay [11] were 275 µM and 311 µM, respectively.

In assay [2], GGNSGVSGPINFTHKVHVGFDPASGSYTGLPIEWERLLSASGIT (modifications not checked) [mCla4-cCst20] registered a Kd of 0.031 µM.

The term Kd denotes the concentration at which binding is half-saturated. For orientation: EC50 (read off the curve) means the concentration needed to bring the measured effect to its halfway point. A high value points to a less potent agent.
